Results published in PMC5537355, “Structures and transport dynamics of a Campylobacter jejuni multidrug efflux pump” (Nature Communications, 2017).

Columns and labels:
[1] = target: Campylobacter jejuni CmeB multidrug efflux pump (Campylobacter jejuni) (UniProt Q8RTE4); experiment: crystal structure
CmeB = target: T1, CmeB (Campylobacter jejuni, UniProt Q8RTE4); experiment: isothermal titration calorimetry; type: binding; details: 20 mM Na-HEPES pH 7.5, 0.03% DDM, room temperature; 20 μM monomer in cell; no cyclooctatetraene
T1 construct: full-length, N-terminal 6xHis (pET15b), E. coli BL21(DE3)deltaacrB host; homotrimer

Compound	stoichiometry N [1]	KD (CmeB)
Campylobacter jejuni CmeB multidrug efflux pump (from UniProt Q8RTE4) (natural protein)	3	
C[C@H](CCC(=O)NCCS(=O)(=O)O)[C@H]1CC[C@H]2[C@@H]3CC[C@@H]4C[C@H](O)CC[C@]4(C)[C@H]3C[C@H](O)[C@]12C [taurodeoxycholate]		examine the binding of taurodeoxycholate to the purified CmeB transporter
